B1: Platelet-activating factor acetylhydrolase IB subunit beta (Mus musculus), P63005 (parent)
chain: MVLSQRQRDELNRAIADYLRSNGYEEAYSVFKKEAELDMNEELDKKYAGLLEKKWTSVIRLQKKVMELESKLNEAKEEFTSGGPLGQKRDPKEWIPRPPEKYALSGHRSPVTRVIFHPVFSVMVSASEDATIKVWDYETGDFERTLKGHTDSVQDISFDHSGKLLASCSADMTIKLWDFQGFECIRTMHGHDHNVSSVAIMPNGDHIVSASRDKTIKMWEVQTGYCVKTFTGHREWVRMVRPNQDGTLIASCSNDQTVRVWVVATKECKAELREHEHVVECISWAPESSYSSISEATGSETKKSGKPGPFLLSGSRDKTIKMWDVSTGMCLMTLVGHDNWVRGVLFHSGGKFILSCADDKTLRVWDYKNKRCMKTLNAHEHFVTSLDFHKTAPYVVTGSVDQTVKVWECR
partner: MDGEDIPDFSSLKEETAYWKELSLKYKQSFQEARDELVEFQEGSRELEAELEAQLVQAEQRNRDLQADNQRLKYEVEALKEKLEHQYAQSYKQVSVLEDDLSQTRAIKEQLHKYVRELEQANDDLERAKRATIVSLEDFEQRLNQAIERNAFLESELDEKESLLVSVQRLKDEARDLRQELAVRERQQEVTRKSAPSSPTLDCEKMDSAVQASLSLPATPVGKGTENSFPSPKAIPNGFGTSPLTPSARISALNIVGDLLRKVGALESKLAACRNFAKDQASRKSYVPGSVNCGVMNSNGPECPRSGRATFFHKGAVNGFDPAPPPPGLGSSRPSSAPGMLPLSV

Variants of: B1
Settings: with ndel1_mouse Ndel1, Q9ERR1

Variant	effect of a mutation on the interaction
S169P	disrupting interaction
S152W	disrupting interaction
H149R	disrupting interaction

— IntAct's records for PubMed 11231056
